Molecular target: T1, N-terminal domain of GpsB (GpsB 1-75) (S. aureus, UniProt Q2FYI5 1-75)
T1 construct: GpsB, S. aureus, amino acids 1-75 (N-terminal domain); source: E. coli BL21 (DE3), purified (Ni-NTA, SUMO protease, second Ni-NTA); not shown: His, N-terminal, cleaved; SUMO, N-terminal, cleaved
T1 sequence (looked up): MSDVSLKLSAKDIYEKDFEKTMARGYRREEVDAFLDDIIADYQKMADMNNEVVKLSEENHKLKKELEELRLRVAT
Assay: SEC; GpsB(1-75) at 90 uM mixed with SUMO-FacZ at 30 uM in 500 ul, salt 150-200 mM; Superdex75 Increase 10/300 in 20 mM HEPES pH 7.6, 100 mM NaCl, 1 mM DTT, 0.5 ml/min
Details: both partners purified

B1: His-SUMO fusion bearing a 3x concatenation of residues 127-146 of FacZ (native motif NRHYRR) (domain or fragment)
chain: EIADKWQNRHYRRGSANYKAGSAGEIADKWQNRHYRRGSANYKAGSAGEIADKWQNRHYRRGSANYKA
notes: FacZ (factor preventing extra Z-rings), S. aureus, residues 127-146, first of three repeats; linker; FacZ, S. aureus, residues 127-146, second repeat; FacZ, S. aureus, residues 127-146, third repeat; The methods call the stretch 127-145, the results and legends 127-146; also called SUMO-3x-FacZ (127-146); His-SUMO-FacZ_(127-145); source: E. coli BL21 (DE3), purified (Ni-NTA); not shown: His, …
binding result: binds

From paper PMC10914604, “FacZ is a GpsB-interacting protein that prevents aberrant division-site placement in Staphylococcus aureus” (Nature Microbiology, 2024)
